Measured values reported in paper PMC6699109, “A GH51 α-L-arabinofuranosidase from Talaromyces leycettanus strain JCM12802 that selectively drives synergistic lignocellulose hydrolysis” (Microbial Cell Factories, 2019).

Substrate: O=[N+]([O-])c1ccc(O[C@@H]2O[C@@H](CO)[C@H](O)[C@H]2O)cc1
Test: purified protein
Format: biochemical, Evansstolkia leycettana
Conditions: 0.1 M McIlvaine buffer pH 3.5, 55 °C, 5 min, 0.1–5 mM substrate

B1: TlAbf51 (Evansstolkia leycettana) (protein)
chain: MKTLPALAGGLAVAVTYLSGLAFAIDLTVSKTGGNASSPLLYGIMFEDINNSGDGGIHGQLLKNNGFQGNNPGLTAYAAVGNVTLSQDTSNPLSSAITSSLKVSVPPGTTGYVGFANTGYAGVPVVATTYANYFWMKGKYSGTINLRLVGTSSGIVYASHNITVHSTDSQFTYYDTSFTSSASPDGNNEWQLLFDGSQVAGSSLNFGLVQLFPPTYHSRYNGLRNDVASFLEEIKPSFLRFPGGNNLEGASPADRWKWNATIGPVVDRPGRQGDWGYPNTDALGLDEYLYWCEDMGMEPVLAVWSGLSLGGGIVSGSALDPYVDDIMNELEYLLGDMSTAGGRLRAQNGRTEPWPIKHVEVGNEDNLSSGCGTYASRFTQIYNAIHAAYPDITVIASTTDASCLPSSILEGVITDIHHYLNPDQFVALFNEWDNWPRTHPIFVGEYASTHNSDGSQTYWTRMRGSCGEAVYMIGMERNSDIVKMASYAPLLEHFNLAEWSPDLFGLDSSPDSITGSTSYYVQKMFSTNRGSTILPVTSDAGFGPVYWVASVSGSTYYVKLANYGSASETVTINIDGTKSGTLEMLSGAEMGSNYPHNVTITPQTSSVSGSGSFTVTMPAWAVAVLAVS
notes: secreted from Pichia pastoris GS115 (pPIC9, EcoRI/NotI), purified
In the case of B1, the Km is reported as 280 ± 10 µM and the kcat is reported as 1600 s⁻¹.
